Measured values taken from publication PMC2737543, “The crystal structure of Haloferax volcanii proliferating cell nuclear antigen reveals unique surface charge characteristics due to halophilic adaptation” (BMC Structural Biology, 2009).

Target: the molecule itself
Assay: SEC; 10/300 Superdex 200, 50 mM HEPES pH 7.0, KCl 0.2 to 3.0 M (and equivalent NaCl); protein incubated 4 hours in the buffer before loading; 0.5 ml/min; calibrated with molecular weight standards

B1: Haloferax volcanii proliferating cell nuclear antigen (natural protein)
chain: MFKAIVSAATLRDALDSVSVLVDECKIRLNEESLSIRAVDPANVGMVDLTLDAAAFESYEAHGGVIGVNLSRLEEVAGMAGAGDLIHLTLDEETRKLNIRIDGLSYTLALIDPDSIRQEPDIPDLDLAANIVLEGTHLDRGIKAADMVSDHIRLRVDGAEETFHIEAEGDTDDVDLSLPPADLISIEAGAADSLFSLDYLKDMNKAIPTDAEVTVELGEEFPVKLHYQIAEGMGTITYMLAPRIQSD
notes: Homotrimer; No tag is mentioned; In the model the N-terminal methionine is missing and the C-terminus is not modelled from residue 244; also called HvPCNA; H. volcanii PCNA; source: E. coli B834 (DE3), purified (ammonium sulphate precipitation, Superdex 200, Q-sepharose FF)
B1 was tested, and the “stoichiometry N” value was 3.
